Measurements taken from patent US20210032291A1 (University of Pennsylvania, published 2021).
Bridge positions count the residues as written; N and C are the ends. Square brackets hold non-standard residues; d marks the D form. Ends that are not written are not given here. Trp(1-Me) = Cn1cc(C[C@H](N)C(=O)O)c2ccccc21; NMeI = CC[C@H](C)[C@H](NC)C(=O)O; Orn = NCCC[C@H](N)C(=O)O; Sar = CNCC(=O)O

How the values were obtained:
[1] = target: T1, C3 protein (target in the classical-pathway complement activation ELISA); experiment: cell-based or functional assay
[2] = target: T1, C3 protein (target in the …); experiment: cell-based or functional assay; remark: listed apart in the source

Row | Binder | IC50, peptide concentration to reach 50% inhibition of classical pathway complement activation [1] | IC50, peptide concentration to reach 50% inhibition of classical pathway complement activation (ELISA) [2]
1 | [dY]ICV[Trp(1-Me)]QNW[Sar]AH[Orn]C[NMeI]-NH2 (disulfide 3-13) [Cp40 (11Orn 6Asn)] | 0.36 nM | 
2 | [dY]ICV[Trp(1-Me)]QDW[Sar]AH[Orn]C[NMeI]-NH2 (disulfide 3-13) [Cp40 (11Orn)] | 0.22 nM | 
3 | Me-ICVWQDW[Sar]AHRC[NMeI]-NH2 (disulfide 2-12; not fully specified (residue 4); printed as Me-Ile-[Cys-Val-Trp(Me)-Gln-Asp-Trp-Sar-Ala-His-Arg-Cys]-mIle-NH2) [Peptide 1: Me-Ile-[Cys-Val-Trp(Me)-Gln-Asp-Trp-Sar-Ala-His-Arg-Cys]-mIle-NH2] |  | 180 nM
4 | Ac-ICV[Trp(1-Me)]QDWGAHRCT-NH2 (disulfide 2-12) [4(1MeW): Ac-Ile-[Cys-Val-Trp(Me)-Gln-Asp-Trp-Gly-Ala-His-Arg-Cys]-Thr-NH2] |  | 132 nM
5 | GICV[Trp(1-Me)]QDW[Sar]AHRC[NMeI]-NH2 (disulfide 3-13; N-terminus assumed; SMILES CC[C@H](C)[C@H](NC(=O)CN)C(=O)N[C@H]1CSSC[C@@H](C(=O)N(C)[C@H](C(N)=O)[C@@H](C)CC)NC(=O)[C@H](CCCNC(=N)N)NC(=O)[C@H](Cc2c[nH]cn2)NC(=O)[C@H](C)NC(=O)CN(C)C(=O)[C@H](Cc2c[nH]c3ccccc23)NC(=O)[C@H](CC(=O)O)NC(=O)[C@H](CCC(N)=O)NC(=O)[C@H](Cc2cn(C)c3ccccc23)NC(=O)[C@H](C(C)C)NC1=O) [Peptide 2: Gly-Ile-[Cys-Val-Trp(Me)-Gln-Asp-Trp-Sar-Ala-His-Arg-Cys]-mIle-NH2] |  | 113 nM
6 | YICV[Trp(1-Me)]QDW[Sar]AHRC[NMeI]-NH2 (disulfide 3-13) [Peptide 4: Tyr-Ile-[Cys-Val-Trp(Me)-Gln-Asp-Trp-Sar-Ala-His-Arg-Cys]-mIle-NH2] |  | 72 nM
7 | GICVWQDWGAHRCI (Sar (N-methyl-Gly) at Xaa0 (N-terminus); Trp(Me) at position 4; Sar at position 8; mIle at position 13; C-terminal -NH2; cyclic via Cys2-Cys12 disulfide (compstatin position numbering)) [Compstatin 30 (Cp30): Sar-Ile-[Cys-Val-Trp(Me)-Gln-Asp-Trp-Sar-Ala-His-Arg-Cys]-mIle-NH2] |  | 82 nM
8 | [dY]ICV[Trp(1-Me)]QNW[Sar]AHRC[NMeI]-NH2 (disulfide 3-13; N-terminus assumed; SMILES CC[C@H](C)[C@H](NC(=O)[C@H](N)Cc1ccc(O)cc1)C(=O)N[C@H]1CSSC[C@@H](C(=O)N(C)[C@H](C(N)=O)[C@@H](C)CC)NC(=O)[C@H](CCCNC(=N)N)NC(=O)[C@H](Cc2c[nH]cn2)NC(=O)[C@H](C)NC(=O)CN(C)C(=O)[C@H](Cc2c[nH]c3ccccc23)NC(=O)[C@H](CC(N)=O)NC(=O)[C@H](CCC(N)=O)NC(=O)[C@H](Cc2cn(C)c3ccccc23)NC(=O)[C@H](C(C)C)NC1=O) [Cp40 (6Asn)] | 0.26 nM | 
